Source: patent US20110033498

Key:
[1] = molecular target: pro-SUMO-1 (UniProt P63165)
[2] = molecular target: poly-SUMO-2 chains (2-8) (UniProt P61956)
[3] = test system: poly-SUMO-3 chains (2-8)

Sequence of poly-SUMO-2 chains (2-8) (P61956 1-93): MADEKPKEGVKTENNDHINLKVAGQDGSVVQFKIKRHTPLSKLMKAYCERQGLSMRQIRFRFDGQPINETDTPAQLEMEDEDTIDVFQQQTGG
Sequence of pro-SUMO-1 (P63165 whole entry): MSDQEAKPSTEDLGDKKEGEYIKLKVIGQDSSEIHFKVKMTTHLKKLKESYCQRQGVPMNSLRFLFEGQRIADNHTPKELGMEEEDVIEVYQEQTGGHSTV

## His6-SENP2CD (catalytic domain of SENP2)
[1]
  in vitro processing of pro-SUMO-1, Coomassie staining: could hydrolyze SUMO chains to monomers (FIG. 12D, lane 10) and process pro-SUMO-1
[2]
  in vitro hydrolysis of poly-SUMO-2 chains, Coomassie staining: the catalytic domain of SENP2 (SENP2CD), a SUMO-specific protease, could hydrolyze SUMO chains to monomers
  in vitro hydrolysis of poly-SUMO-2 chains, SDS-PAGE and Coomassie staining: SENP2 reduced the chains to monomers
[3]
  in vitro hydrolysis of poly-SUMO-3 chains, Coomassie staining: the catalytic domain of SENP2 (SENP2CD), a SUMO-specific protease, could hydrolyze SUMO chains to monomers
  in vitro hydrolysis of poly-SUMO-3 chains, anti-SUMO-3 Western blot: An identical result was obtained when poly-SUMO-3(2-8) chains were tested
